Assay results: the MegaScale stability set (Tsuboyama et al. 2023)

B1: HHH_rd1_0493 (parent)
chain: RDEDEKEKIKEALKRGNEDKAKEIAKRANVSPEEYERLRKEAE

Variants of: B1
Assay: folding stability dG (cDNA display proteolysis); higher = more stable
Details: PBS, room temperature

| Variant | folding stability dG [kcal/mol] |
| --- | --- |
| RDEDEKEKIKEALKRGNEDKAKEIAKRANVSPAEYERLRKEAE [E33A] | 2.69 |
| RDEDEKEKIKEALKRGNEDKAKEIAKRANVSEEEYERLRKEAE [P32E] | 2.85 |
| RDEDEKEKIKEALKRGNEDKAKEIAKRANVSGEEYERLRKEAE [P32G] | 2.37 |
| RDEDEKEKIKEALKRGNEDKAKEIAKRANVSHEEYERLRKEAE [P32H] | 2.7 |
| RDEDEKEKIKEALKRGNEDKAKEIAKRANVSDEEYERLRKEAE [P32D] | 3.02 |
| RDEDEKEKIKEALKRGNEDKAKEIAKRANVSVEEYERLRKEAE [P32V] | 2.74 |
| RDEDEKEKIKEALKRGNEDKAKEIAKRANVSREEYERLRKEAE [P32R] | 2.73 |
| RDEDEKEKIKEALKRGNEDKAKEIAKRANVSYEEYERLRKEAE [P32Y] | 2.7 |
| RDEDEKEKIKEALKRGNEDKAKEIAKRANVSKEEYERLRKEAE [P32K] | 2.65 |
| RDEDEKEKIKEALKRGNEDKAKEIAKRANVSAEEYERLRKEAE [P32A] | 3.03 |
| RDEDEKEKIKEALKRGNEDKAKEIAKRANVSNEEYERLRKEAE [P32N] | 2.63 |
| RDEDEKEKIKEALKRGNEDKAKEIAKRANVSCEEYERLRKEAE [P32C] | 2.07 |
| RDEDEKEKIKEALKRGNEDKAKEIAKRANVSWEEYERLRKEAE [P32W] | 2.92 |
| RDEDEKEKIKEALKRGNEDKAKEIAKRANVSMEEYERLRKEAE [P32M] | 2.79 |
| RDEDEKEKIKEALKRGNEDKAKEIAKRANVSIEEYERLRKEAE [P32I] | 2.77 |
| RDEDEKEKIKEALKRGNEDKAKEIAKRANVSLEEYERLRKEAE [P32L] | 2.83 |
| RDEDEKEKIKEALKRGNEDKAKEIAKRANVSSEEYERLRKEAE [P32S] | 2.67 |
| RDEDEKEKIKEALKRGNEDKAKEIAKRANVSQEEYERLRKEAE [P32Q] | 2.8 |
| RDEDEKEKIKEALKRGNEDKAKEIAKRANVSFEEYERLRKEAE [P32F] | 2.76 |
| RDEDEKEKIKEALKRGNEDKAKEIAKRANVSTEEYERLRKEAE [P32T] | 2.61 |

| Variant | folding stability dG [kcal/mol] |
| --- | --- |
| RDEDEKEKIKEALKRGNEDKAKEIAKRANFSPEEYERLRKEAE [V30F] | 2.3 |
| RDEDEKEKIKEALKRGNEDKAKEIAKRANKSPEEYERLRKEAE [V30K] | 0.917 |
| RDEDEKEKIKEALKRGNEDKAKEIAKRANQSPEEYERLRKEAE [V30Q] | 0.766 |
| RDEDEKEKIKEALKRGNEDKAKEIAKRANISPEEYERLRKEAE [V30I] | 3.41 |
| RDEDEKEKIKEALKRGNEDKAKEIAKRANRSPEEYERLRKEAE [V30R] | 0.486 |
| RDEDEKEKIKEALKRGNEDKAKEIAKRANSSPEEYERLRKEAE [V30S] | 0.63 |
| RDEDEKEKIKEALKRGNEDKAKEIAKRANGSPEEYERLRKEAE [V30G] | 0.389 |
| RDEDEKEKIKEALKRGNEDKAKEIAKRANDSPEEYERLRKEAE [V30D] | 0.32 |
| RDEDEKEKIKEALKRGNEDKAKEIAKRANESPEEYERLRKEAE [V30E] | 0.435 |
| RDEDEKEKIKEALKRGNEDKAKEIAKRANASPEEYERLRKEAE [V30A] | 0.849 |
| RDEDEKEKIKEALKRGNEDKAKEIAKRANCSPEEYERLRKEAE [V30C] | 1.69 |
| RDEDEKEKIKEALKRGNEDKAKEIAKRANPSPEEYERLRKEAE [V30P] | 0.301 |
| RDEDEKEKIKEALKRGNEDKAKEIAKRANTSPEEYERLRKEAE [V30T] | 1.84 |
| RDEDEKEKIKEALKRGNEDKAKEIAKRANMSPEEYERLRKEAE [V30M] | 2.89 |
| RDEDEKEKIKEALKRGNEDKAKEIAKRANHSPEEYERLRKEAE [V30H] | 0.486 |
| RDEDEKEKIKEALKRGNEDKAKEIAKRANWSPEEYERLRKEAE [V30W] | 1.73 |
| RDEDEKEKIKEALKRGNEDKAKEIAKRANYSPEEYERLRKEAE [V30Y] | 1.84 |
| RDEDEKEKIKEALKRGNEDKAKEIAKRANNSPEEYERLRKEAE [V30N] | 0.389 |
| RDEDEKEKIKEALKRGNEDKAKEIAKRANLSPEEYERLRKEAE [V30L] | 3.09 |
| RDEDEKEKIKEALKRGNEDKAKEIAKRANVNPEEYERLRKEAE [S31N] | 2.39 |

| Variant | folding stability dG [kcal/mol] |
| --- | --- |
| RDEDEKEKIKEALKRGNEDKAKEIAKRANVAPEEYERLRKEAE [S31A] | 2.45 |
| RDEDEKEKIKEALKRGNEDKAKEIAKRANVFPEEYERLRKEAE [S31F] | 1.4 |
| RDEDEKEKIKEALKRGNEDKAKEIAKRANVGPEEYERLRKEAE [S31G] | 2.94 |
| RDEDEKEKIKEALKRGNEDKAKEIAKRANVRPEEYERLRKEAE [S31R] | 1.87 |
| RDEDEKEKIKEALKRGNEDKAKEIAKRANVIPEEYERLRKEAE [S31I] | 1.44 |
| RDEDEKEKIKEALKRGNEDKAKEIAKRANVQPEEYERLRKEAE [S31Q] | 2.19 |
| RDEDEKEKIKEALKRGNEDKAKEIAKRANVWPEEYERLRKEAE [S31W] | 1.27 |
| RDEDEKEKIKEALKRGNEDKAKEIAKRANVVPEEYERLRKEAE [S31V] | 1.66 |
| RDEDEKEKIKEALKRGNEDKAKEIAKRANVDPEEYERLRKEAE [S31D] | 2.6 |
| RDEDEKEKIKEALKRGNEDKAKEIAKRANVHPEEYERLRKEAE [S31H] | 1.95 |
| RDEDEKEKIKEALKRGNEDKAKEIAKRANVCPEEYERLRKEAE [S31C] | 1.74 |
| RDEDEKEKIKEALKRGNEDKAKEIAKRANVEPEEYERLRKEAE [S31E] | 2.17 |
| RDEDEKEKIKEALKRGNEDKAKEIAKRANVMPEEYERLRKEAE [S31M] | 2.11 |
| RDEDEKEKIKEALKRGNEDKAKEIAKRANVKPEEYERLRKEAE [S31K] | 2.07 |
| RDEDEKEKIKEALKRGNEDKAKEIAKRANVYPEEYERLRKEAE [S31Y] | 1.3 |
| RDEDEKEKIKEALKRGNEDKAKEIAKRANVTPEEYERLRKEAE [S31T] | 3.03 |
| RDEDEKEKIKEALKRGNEDKAKEIAKRANVLPEEYERLRKEAE [S31L] | 2.21 |
| RDEDEKEKIKEALKRGNEDKAKEIAKRANVPPEEYERLRKEAE [S31P] | 2.65 |
| RDEDEKEKIKEALKRGNEDKAKEIAKRYNVSPEEYERLRKEAE [A28Y] | 3.02 |
